{
  "source": "paper PMC6141027",
  "biological_target": "griffithsin (GRFT)",
  "assay": "AUC",
  "data": [
    {"substance": "griffithsin (GRFT) (natural protein)", "values": [
      {"measurement": "stoichiometry N", "value": 2}
    ]}
  ]
}
